Target: agrl1_mouse Adgrl1 (UniProt Q80TR1)
Sequence of UniProt Q80TR1 (Q80TR1 whole entry): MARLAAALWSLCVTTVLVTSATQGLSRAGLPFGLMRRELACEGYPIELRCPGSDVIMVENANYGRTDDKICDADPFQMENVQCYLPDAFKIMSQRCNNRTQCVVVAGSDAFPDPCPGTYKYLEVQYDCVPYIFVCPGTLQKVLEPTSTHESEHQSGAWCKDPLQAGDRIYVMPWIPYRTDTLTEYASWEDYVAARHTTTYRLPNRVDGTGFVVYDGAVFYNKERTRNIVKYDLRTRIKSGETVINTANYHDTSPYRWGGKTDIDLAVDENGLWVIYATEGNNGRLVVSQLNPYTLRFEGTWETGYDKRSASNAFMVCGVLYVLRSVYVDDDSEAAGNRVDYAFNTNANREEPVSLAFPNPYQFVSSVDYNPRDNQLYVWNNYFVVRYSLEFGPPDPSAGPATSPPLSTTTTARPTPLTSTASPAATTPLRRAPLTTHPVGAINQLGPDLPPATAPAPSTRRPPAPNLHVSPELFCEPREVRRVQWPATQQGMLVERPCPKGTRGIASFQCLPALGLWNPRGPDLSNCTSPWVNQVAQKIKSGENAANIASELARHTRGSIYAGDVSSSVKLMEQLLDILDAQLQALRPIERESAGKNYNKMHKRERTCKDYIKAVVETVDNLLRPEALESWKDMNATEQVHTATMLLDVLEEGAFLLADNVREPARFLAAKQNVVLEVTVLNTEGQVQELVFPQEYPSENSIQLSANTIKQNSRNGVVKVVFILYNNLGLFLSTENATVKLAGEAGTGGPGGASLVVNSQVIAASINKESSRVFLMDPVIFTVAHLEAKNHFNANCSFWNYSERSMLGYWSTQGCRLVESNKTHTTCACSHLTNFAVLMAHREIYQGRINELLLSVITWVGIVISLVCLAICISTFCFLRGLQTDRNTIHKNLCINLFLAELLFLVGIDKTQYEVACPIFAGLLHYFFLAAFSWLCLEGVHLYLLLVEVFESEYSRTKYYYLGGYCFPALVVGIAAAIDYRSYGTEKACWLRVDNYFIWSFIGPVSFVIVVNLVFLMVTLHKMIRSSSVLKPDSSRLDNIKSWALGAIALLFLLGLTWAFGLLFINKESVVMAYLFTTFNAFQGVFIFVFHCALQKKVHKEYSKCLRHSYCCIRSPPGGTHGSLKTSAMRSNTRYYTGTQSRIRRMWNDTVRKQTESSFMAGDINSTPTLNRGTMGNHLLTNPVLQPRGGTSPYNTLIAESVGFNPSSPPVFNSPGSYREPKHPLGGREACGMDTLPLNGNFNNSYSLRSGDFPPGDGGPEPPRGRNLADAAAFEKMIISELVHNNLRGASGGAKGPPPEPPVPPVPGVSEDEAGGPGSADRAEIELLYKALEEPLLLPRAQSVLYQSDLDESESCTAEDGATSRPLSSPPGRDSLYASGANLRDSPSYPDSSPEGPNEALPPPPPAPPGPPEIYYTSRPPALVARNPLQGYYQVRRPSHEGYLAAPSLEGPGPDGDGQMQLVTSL

effect of a mutation on the interaction: with no effect
Substance: Teneurin-1 (Mus musculus), Q9WTS4 R37K

Reference: IntAct's records for PubMed 30774623
